In the supplement of paper PMC7125110:
Fewer inactive variants are shown than the library holds.

B1: glmS ribozyme (parent)
chain: AUAAAAGCGCCAGAACUACAGAAAUGUAGUUGACGAGGAGGAGGUUUAUCGAAUUUUCGGCGGAUGCCUCCAAA

Assays:
Settings in all cases: with glucosamine-6-phosphate
glucosamine-6-phosphate [1] = variants of: B1; assay: self-cleavage kobs at 160 uM GlcN6P; higher = faster cleavage; RNA array
In short: (§1)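 Barcoded ribozyme variants on sequenced MiSeq chips were transcribed in situ by E. coli RNA polymerase and followed at 37 °C through a hybridised Cy3 probe. Glucosamine-6-phosphate at 40 μM to 10 mM in HEPES/KCl/Mg(OAc)2 buffer was flowed in, and tiles were imaged over ~14 h. Signals were normalised to baseline and to non-cleaving reference variants, and per-tile medians were fit to one- or two-exponential decays to give kobs. Weighted Michaelis–Menten fits across concentrations gave kcat and KM.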

glucosamine-6-phosphate [2] = variants of: B1; assay: self-cleavage kobs at 640 uM GlcN6P; higher = faster cleavage; RNA array
In short: as §1

glucosamine-6-phosphate [3] = variants of: B1; assay: self-cleavage kobs at 2500 uM GlcN6P; higher = faster cleavage; RNA array
In short: as §1

glucosamine-6-phosphate [4] = variants of: B1; assay: self-cleavage kobs at 10000 uM GlcN6P; higher = faster cleavage; RNA array
In short: as §1

Variant | self-cleavage kobs at 160 uM GlcN6P (glucosamine-6-phosphate [1]) | self-cleavage kobs at 640 uM GlcN6P (glucosamine-6-phosphate [2]) | self-cleavage kobs at 2500 uM GlcN6P (glucosamine-6-phosphate [3]) | self-cleavage kobs at 10000 uM GlcN6P (glucosamine-6-phosphate [4])
AUAAAAGUGCCAGAACUACAGAAAUGUAGUUGACGAGGAGGAGGUUUAUCGGAUUUUCGGCGGAUGCCUCCAAA [C8U A52G] | < 1e-05 s⁻¹ | < 1e-05 s⁻¹ | < 1e-05 s⁻¹ | < 1e-05 s⁻¹
AUAAAAGUGCCAGAACUACAGAAAUGUAGUUGACGAGGCGGAGGUUUAUGGAAUUUUCGGGGGAUGCCUCCAAA [C8U A39C C50G C61G] | < 1e-05 s⁻¹ | < 1e-05 s⁻¹ | < 1e-05 s⁻¹ | 
AUAAAAGUGCUAGAAGUACAGAAAUGUAGUUGACGAGGAGGAGGUUUAUCGAAUGUUCGGCGGAUGCCUCCAAA [C8U C11U C16G U55G] | < 1e-05 s⁻¹ | < 1e-05 s⁻¹ |  | 
AUAAAAGCCCCGGAACUACAGAAAUGUAGUUGACGAGGAGGAGGUUUAUCGAAUUUUCGGCGGAUGCCUCCAAA [G9C A12G] | < 1e-05 s⁻¹ |  | < 1e-05 s⁻¹ | < 1e-05 s⁻¹
AUAAAAGGGCCAGAACUACAGAAAUGUAGUUGACGAGGAGGAGGUCUAUCGAAUUUUCGGCGGAUGCCUCCAAA [C8G U46C] | < 1e-05 s⁻¹ | < 1e-05 s⁻¹ | < 1e-05 s⁻¹ | < 1e-05 s⁻¹
AUAAAAGUGCCAGAACUACAGAAAUGUAGUUGACCAGGAGGAGGUUUAUUUAAUUUUCGGGGGAUGCCUCCAAA [C8U G35C C50U G51U C61G] | < 1e-05 s⁻¹ |  | < 1e-05 s⁻¹ | 
AUAAAAGUGCCAGAACUACAGAAAUGUAGUUGACGAGGAGGAGGUAUAUCGAAUUUUCGGCGGAUGCCUCCAAA [C8U U46A] | < 1e-05 s⁻¹ |  | < 1e-05 s⁻¹ | < 1e-05 s⁻¹
AUAAAAGCACCAGAACUACAGAAAUGUAGUUGACGGGGAGGAGGUUUAUCGAAUUUUCGGCGGCUGCCUCCAAA [G9A A36G A64C] | < 1e-05 s⁻¹ |  | < 1e-05 s⁻¹ | 
AUAAAAGCCCCAGAUCUACAGAAAUGUAGUUGACGAGGAGGAUGUUUAUCGAAUUUUCGGCGGAUGCCUCCAAA [G9C A15U G43U] | < 1e-05 s⁻¹ | < 1e-05 s⁻¹ | < 1e-05 s⁻¹ | 
AUAAAAGCCCCAGAACUACAGAAAUGUAGUUGACGAGGAGGAGGUUUAUCGAGUUUUCGGCGGAUGCCUCCAAA [G9C A53G] | < 1e-05 s⁻¹ |  | < 1e-05 s⁻¹ | < 1e-05 s⁻¹
AUAAAAGCACCAGAACUACAGAAAUGUAAUUGACGAGGAGGGGGUUUCUCGAAUUUUCGGCGGAAGCCUCCAAA [G9A G29A A42G A48C U65A] | < 1e-05 s⁻¹ | < 1e-05 s⁻¹ | < 1e-05 s⁻¹ | 
AUAAAAGCACCAGAACUACAGAAAUGUAGUUGACGAGGAGGAGCUUUAUCGAAUUUUCGGCGGAUGCAUCCAAA [G9A G44C C68A] | < 1e-05 s⁻¹ | < 1e-05 s⁻¹ | < 1e-05 s⁻¹ | 
AUAAAAGCCCCAGAACUACAGAAAUGUAGUUGACGAGCAGGAGGUUUAUCGAAUUUUCGGCGUAUGCCUCCAAA [G9C G38C G63U] | < 1e-05 s⁻¹ |  | < 1e-05 s⁻¹ | 
AUAAAAGCCCCAGAACUACAGAAAUGUAGUUGACGAAGAGGAGGUUUAUCGAAUUUUCGGCGGAUGCCUCCAAA [G9C G37A] | < 1e-05 s⁻¹ | < 1e-05 s⁻¹ | < 1e-05 s⁻¹ | 
AUAAAAGCUCCAGAACUACAGAAAUGUAGUUGCCGAGGAGGAGGUUUAUCGAAUUUUCGGCGGAUGGCUCCAAA [G9U A33C C67G] | < 1e-05 s⁻¹ |  | < 1e-05 s⁻¹ | 
AUAAAAGUGCCAGAACUACAGAAAUGUAGUUGACGAGGAGGAGGUUCAUCGAAUUUUCGGCUGAUGCCUCCAAA [C8U U47C G62U] | < 1e-05 s⁻¹ | < 1e-05 s⁻¹ |  | 
AUAAAAGCCACAGAACUACAGAAAUGUAGUUGACGAGGAGGACGUUUAUCGAAUUUUCGGCGGAUGUCUCCAAA [G9C C10A G43C C67U] | < 1e-05 s⁻¹ | < 1e-05 s⁻¹ | < 1e-05 s⁻¹ | 
AUAAAAGCCCCAGAACUACAGAAAUGUAGUUGACGAGGAGGAGGUUUACCGAAUUUUCGGCGGAUGCCUCCAAA [G9C U49C] | < 1e-05 s⁻¹ | < 1e-05 s⁻¹ | < 1e-05 s⁻¹ | < 1e-05 s⁻¹
AUAAAAGCACCAGAACUACAGAAAUGUAGUUGACGAGGAGGAGGUUUAUCGAAUUUUCGGCGGAUGAGUCCAAA [G9A C67A C68G] | < 1e-05 s⁻¹ | < 1e-05 s⁻¹ | < 1e-05 s⁻¹ | 
AUAAAAGCACCAGAACUACAGAAAUGUAAUUGACGAGGAGGAGGUUUCUCGAAUUUUUGGCGGAUGCCUCCAAA [G9A G29A A48C C58U] | < 1e-05 s⁻¹ |  |  | 
AUAAAAGUGCCAGAACUACAGAAAUGUAGUUGACGAGGAGGAGGUUUAUCGAAUUUUCGUCGGAUGCUUCCAAA [C8U G60U C68U] | < 1e-05 s⁻¹ | < 1e-05 s⁻¹ | < 1e-05 s⁻¹ | < 1e-05 s⁻¹
AUAAAAGCACCUGAACUACAGAAAUGUAGUUGCCGAGGAGGAGGUUUAUCGAAUUUUCGGCUGAUGCCUCCAAA [G9A A12U A33C G62U] | < 1e-05 s⁻¹ |  |  | 
AUAAAAGUGCCAGAAAUACAGAAAUGUAGUUGACGAGGCGGAGGUCUAUCAAAUUUUCGGCGGAGGCCACCAAA [C8U C16A A39C U46C G51A U65G U69A] | < 1e-05 s⁻¹ |  | < 1e-05 s⁻¹ | 
AUAAAAGCCCCAGAACUACAGAAAUGUAGUUGUCGGGGAGGAGGAUUCUCGAAUUUUCGGCGGAUGCCUCCAAA [G9C A33U A36G U45A A48C] | < 1e-05 s⁻¹ | < 1e-05 s⁻¹ | < 1e-05 s⁻¹ | 
AUAAAAGCACCAGAACUACAGAAAUGUAGUUGACGAGGAGGAGGUCUAUCGAAUUUUCGGCGCAUGCCUCCAAA [G9A U46C G63C] | < 1e-05 s⁻¹ | < 1e-05 s⁻¹ |  | 
AUAAAAGCCCCAGAACUACAGAAAUGUAGUUGACGAGGAGAAGGUUUAUCGAAUUUUCGGCGGAUGCCUCCAAA [G9C G41A] | < 1e-05 s⁻¹ |  | < 1e-05 s⁻¹ | < 1e-05 s⁻¹
AUAAAAGCACCAGAACUACAGAAAUGUAGCUGACGAGGAGGCGGUUUAUCGAAUUUUCGGCGGAUGCCUUCAAA [G9A U30C A42C C70U] | < 1e-05 s⁻¹ | < 1e-05 s⁻¹ |  | 
AUAAAAGUGCCAGAACUACAGAAAUGUAGUUUACGAGGAGGAGGUUUAUCGAAUUUUCGGCUGAUGCCUCUAAA [C8U G32U G62U C71U] | < 1e-05 s⁻¹ |  | < 1e-05 s⁻¹ | 
